Three variants from IntAct's records for PubMed 25613572 can be followed below.

First the molecules themselves.
B1: Chromo domain-containing protein rhino (Drosophila melanogaster (Fruit fly)), Q7JXA8 (parent)
chain: MSRNHQRPNLGLVDAPPNDHVEEYVVEKILGKRFVNGRPQVLVKWSGFPNENNTWEPLENVGNCMKLVSDFESEVFRLHRKAAAKSVGKSKSSPSSSGPLITENGPSSSKKTQQHSKSVQAKNTAGMSKMNQKKGKNIKKTAGKIKDIENYPKTQMPSTSQVSTDSTEVFDGNPSATTTNMIKSPRIQSLFSDLNLIEPTKDKDVGDTSLKTPPKSRRLIEFPQREDAPLSSKHVSPMLIRKESQPLQSSCTDDSDLGESSSSMSLPTVSSTSSEKSIKVTKSEPKTLGQIKFSSRSSDGGHAASSLGAPKEGDIGLDLSGSDSMDSEVESMRRCPRRKRKKTYPDWKFPEMTKPFGVNRGLDLDKILHCYQMNDDLFMFVTWKGCSSIDAVHINDIKEAYPLQIIKYFESLRIIVPK

In this experiment the parent is B1. As to conditions: with h31_human H3C1, P68431.
As for MSRNHQRPNLGLVDAPPNDHVEEYVVEKILGKRFVNGRPQVLVKASGFPNENNTWEPLENVGNCMKLVSDFESEVFRLHRKAAAKSVGKSKSSPSSSGPLITENGPSSSKKTQQHSKSVQAKNTAGMSKMNQKKGKNIKKTAGKIKDIENYPKTQMPSTSQVSTDSTEVFDGNPSATTTNMIKSPRIQSLFSDLNLIEPTKDKDVGDTSLKTPPKSRRLIEFPQREDAPLSSKHVSPMLIRKESQPLQSSCTDDSDLGESSSSMSLPTVSSTSSEKSIKVTKSEPKTLGQIKFSSRSSDGGHAASSLGAPKEGDIGLDLSGSDSMDSEVESMRRCPRRKRKKTYPDWKFPEMTKPFGVNRGLDLDKILHCYQMNDDLFMFVTWKGCSSIDAVHINDIKEAYPLQIIKYFESLRIIVPK [W45A], the “effect of a mutation on the interaction” value is “disrupting interaction”.
Consider MSRNHQRPNLGLVDAPPNDHVEEYVVEKILGKRAVNGRPQVLVKWSGFPNENNTWEPLENVGNCMKLVSDFESEVARLHRKAAAKSVGKSKSSPSSSGPLITENGPSSSKKTQQHSKSVQAKNTAGMSKMNQKKGKNIKKTAGKIKDIENYPKTQMPSTSQVSTDSTEVFDGNPSATTTNMIKSPRIQSLFSDLNLIEPTKDKDVGDTSLKTPPKSRRLIEFPQREDAPLSSKHVSPMLIRKESQPLQSSCTDDSDLGESSSSMSLPTVSSTSSEKSIKVTKSEPKTLGQIKFSSRSSDGGHAASSLGAPKEGDIGLDLSGSDSMDSEVESMRRCPRRKRKKTYPDWKFPEMTKPFGVNRGLDLDKILHCYQMNDDLFMFVTWKGCSSIDAVHINDIKEAYPLQIIKYFESLRIIVPK [F34A;F76A], for which the “effect of a mutation on the interaction” value was “decreasing interaction strength”.
Under MSRNHQRPNLGLVDAPPNDHVEEYVVEKILGKRFVNGRPQVLVKWSGAPNENNTWEPLENVGNCMKLVSDFESEVFRLHRKAAAKSVGKSKSSPSSSGPLITENGPSSSKKTQQHSKSVQAKNTAGMSKMNQKKGKNIKKTAGKIKDIENYPKTQMPSTSQVSTDSTEVFDGNPSATTTNMIKSPRIQSLFSDLNLIEPTKDKDVGDTSLKTPPKSRRLIEFPQREDAPLSSKHVSPMLIRKESQPLQSSCTDDSDLGESSSSMSLPTVSSTSSEKSIKVTKSEPKTLGQIKFSSRSSDGGHAASSLGAPKEGDIGLDLSGSDSMDSEVESMRRCPRRKRKKTYPDWKFPEMTKPFGVNRGLDLDKILHCYQMNDDLFMFVTWKGCSSIDAVHINDIKEAYPLQIIKYFESLRIIVPK [F48A] stands “disrupting interaction”.
